Reference: publication PMC11091055 (2024)

Target: SARS-CoV-2 prototype (PT) S NTD, human Fc-tagged (SARS-CoV-2)
Assay: SPR

B1: nanobody N235, His-tagged (VHH)
VHH: QVQLQESGGGLVQPGGSLRLSCAASGLIISRYDMSWYRQAPGKERELVATTPIPAARPQYADSVKGRFTISRDNAKNTVSLQMNSLKPEDTAVYYCNLGPESQDHNYNYWGQGTQVTVSS
- koff: 0.00024 s⁻¹
